B1: A1 (humanized anti-IL-17A scFv, CDR graft of 27-07-G02) (scFv)
scFv: DIQMTQSPSSLSASVGDRVTITCQASQTINYWLAWYQQKPGKAPKLLIYRASTLASGVPSRFSGSGSGTDFTLTISSLQPEDFATYYCQNYYYSTSRSYGFGGGTKLTVLGGGGGSGGGGSGGGGSGGGGSEVQLVESGGGLVQPGGSLRLSCAASGFSFSSDYWMCWVRQAPGKGLEWIGCIYAGDVDDTDYASWARGRFTISRDNSKNTVYLQMNSLRAEDTAVYYCARVDGFDITYFDLWGQGTLVTVSS
notes: VL-linker-VH; also called 27-07-G02-sc01; 27_07_G02_sc01
B2: PRO571 (humanized anti-IL-17A scFv, CDR graft of 27-31-C04) (scFv)
scFv: DIQMTQSPSSLSASVGDRVTITCQASESIYRYLSWYQQKPGKAPKLLIYLASTLTSGVPSRFSGSGSGTDFTLTISSLQPEDFATYYCQSNFGTASTTYYNTFGGGTKLTVLGGGGGSGGGGSGGGGSGGGGSEVQLVESGGGLVQPGGSLRLSCAASGFSFSGFYYMCWVRQAPGKGLEWIGCIDTGDGTTYYASWAKGRFTISRDNSKNTVYLQMNSLRAEDTAVYYCARDAAYGGYAYPAHGMDLWGQGTLVTVSS
notes: VL-linker-VH; also called 27-31-C04-sc01; 27_31_C04_sc01
B3: PRO592 (humanized anti-IL-17A scFv, STR graft of 27-31-C04) (scFv)
scFv: DIQMTQSPSSLSASVGDRVTITCQASESIYRYLSWYQQKPGKAPKLLIYLASTLTSGVPSRFSGSGSGTDFTLTISSLQPEDFATYYCQSNFGTASTTYYNTFGGGTKLTVLGGGGGSGGGGSGGGGSGGGGSEVQLVESGGGLVQPGGSLTLSCAASGFSFSGFYYMCWVRQAPGKGLEWIGCIDTGDGTTYYASWAKGRFTISRDNSKNTVYLQMNSLRAEDTAVYYCARDAAYGGYAYPAHGMDLWGPGTLVTVSS
notes: VL-linker-VH; also called 27-31-C04-sc02; 27_31_C04_sc02

Legend:
human IL-17A [1] = biological target: T1, human IL-17A (human, UniProt Q16552 24-155); experiment: SPR (Biacore T200), direct setup: IL-17A amine-coupled on CM5, scFv as analyte
T1 construct: Recombinant human IL-17A (Peprotech Cat. No. 200-17), disulfide-linked homodimer from E. coli; Biotinylated or RPE-labelled in some assays; also called hIL-17A; IL-17A-RPE (labelled)
Procedure: (§1) After each analyte injection cycle the CAP sensor chip was regenerated and new antigen was captured. The scFvs were injected as analyte using a dose response multi-cycle kinetic assay with concentrations of the analyte ranging from 0.35 to 90 nM diluted in running buffer. Obtained sensorgrams were fitted using the 1:1 binding model. In addition, the scFvs were analyzed in an alternative SPR assay setup (“direct setup”).

cynomolgus monkey IL-17A [2] = biological target: T2, cynomolgus monkey IL-17A (Macaca fascicularis (cynomolgus monkey)); experiment: SPR (Biacore T200), cynomolgus IL-17A, scFv as analyte
T2 construct: also called cyno IL-17A; cyno IL17A
Procedure: as §1

human IL-17E [3] = biological target: T3, human IL-17E (human, UniProt Q9H293 33-177); experiment: competition ELISA: scFv A1 coated, binding of biotinylated IL-17A detected, unlabeled IL-17E titrated as competitor [I) A]
T3 construct: also called IL-25
T3 sequence: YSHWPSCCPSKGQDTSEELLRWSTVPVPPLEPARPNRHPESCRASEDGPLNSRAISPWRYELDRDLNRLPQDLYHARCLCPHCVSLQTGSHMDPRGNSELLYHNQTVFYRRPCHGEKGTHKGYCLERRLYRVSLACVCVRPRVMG
Source text: (§2) For this purpose, the scFvs were coated on a 96-well ELISA plate.

human IL-17B [4] = biological target: T4, human IL-17B (human, UniProt Q9UHF5 21-180); experiment: competition ELISA: scFv A1 coated, binding of biotinylated IL-17A detected, unlabeled IL-17B titrated as competitor [I) B]
T4 sequence: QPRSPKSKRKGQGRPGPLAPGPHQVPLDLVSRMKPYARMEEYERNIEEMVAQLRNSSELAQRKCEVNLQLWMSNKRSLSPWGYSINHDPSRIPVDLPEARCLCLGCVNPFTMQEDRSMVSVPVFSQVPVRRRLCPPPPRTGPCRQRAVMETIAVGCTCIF
Source text: as §2

human IL-17A [5] = biological target: T1, human IL-17A; experiment: SPR (Biacore T200), capture setup: biotinylated IL-17A captured, scFv as analyte
Procedure: as §1

cynomolgus monkey IL-17A [6] = biological target: T2, cynomolgus monkey IL-17A; experiment: SPR (Biacore T200)
Procedure: as §1

human IL-17A [7] = biological target: T1, human IL-17A; experiment: cell-based or functional assay
human IL-17C [8] = biological target: T5, human IL-17C (human, UniProt Q9P0M4 19-197); experiment: competition ELISA: scFv A1 coated, binding of biotinylated IL-17A detected, unlabeled IL-17C titrated as competitor [I) B]
T5 sequence: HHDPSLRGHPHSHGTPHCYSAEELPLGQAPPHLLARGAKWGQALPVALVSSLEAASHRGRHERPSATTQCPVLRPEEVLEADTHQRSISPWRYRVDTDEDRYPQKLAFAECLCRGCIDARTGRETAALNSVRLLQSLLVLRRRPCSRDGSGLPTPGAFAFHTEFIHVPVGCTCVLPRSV
Source text: as §2

human IL-17D [9] = biological target: T6, human IL-17D (human, UniProt Q8TAD2 16-202, limits assumed); experiment: competition ELISA: scFv A1 coated, binding of biotinylated IL-17A detected, unlabeled IL-17D titrated as competitor [I) A]
T6 sequence: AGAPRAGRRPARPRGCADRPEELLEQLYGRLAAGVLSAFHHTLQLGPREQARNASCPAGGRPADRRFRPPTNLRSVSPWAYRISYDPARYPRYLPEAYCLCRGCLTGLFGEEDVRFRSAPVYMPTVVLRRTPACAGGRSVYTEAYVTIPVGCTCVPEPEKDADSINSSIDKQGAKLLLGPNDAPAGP
Source text: as §2

human IL-17A [10] = biological target: T1, human IL-17A; experiment: competitive ELISA: IL-17RA coated, biotinylated IL-17A preincubated with scFv
Procedure: Finally, Tetramethylbenzidin solution (KPL, Cat. No. 53-00-00) was added to develop the plate for 5 to 10 minutes and the reaction was stopped with 1 M HCl. The plate was read using a microtiter plate reader (Infinity reader M200 Pro, Tecan) at a wavelength of 450 nm and 570 nm (reference wavelength).

human IL-17F [11] = biological target: T7, human IL-17F (human, UniProt Q96PD4 31-163); experiment: competition ELISA: scFv A1 coated, binding of biotinylated IL-17A detected, unlabeled IL-17F titrated as competitor [I) A]
T7 construct: Peprotech Cat. No. 200-25 in the direct ELISA
T7 sequence: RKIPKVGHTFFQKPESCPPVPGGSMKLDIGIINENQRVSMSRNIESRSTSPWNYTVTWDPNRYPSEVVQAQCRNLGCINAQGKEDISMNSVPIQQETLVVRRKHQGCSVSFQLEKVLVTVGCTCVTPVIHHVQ
Source text: as §2

human IL-17C [12] = biological target: T5, human IL-17C; experiment: competition ELISA: scFv coated, biotinylated IL-17A, unlabeled cytokine titrated
Source text: as §2

human IL-17F [13] = biological target: T7, human IL-17F; experiment: as above
Source text: as §2

human IL-17D [14] = biological target: T6, human IL-17D; experiment: competition ELISA: scFv PRO571 coated, binding of biotinylated IL-17A detected, unlabeled IL-17D titrated as competitor [II) A]
Source text: as §2

human IL-17B [15] = biological target: T4, human IL-17B; experiment: competition ELISA: scFv PRO571 coated, binding of biotinylated IL-17A detected, unlabeled IL-17B titrated as competitor [II) B]
Source text: as §2

human IL-17E [16] = biological target: T3, human IL-17E; experiment: competition ELISA: scFv PRO571 coated, binding of biotinylated IL-17A detected, unlabeled IL-17E titrated as competitor [II) A]
Source text: as §2

human IL-17E [17] = biological target: T3, human IL-17E; experiment: competition ELISA: scFv PRO592 coated, binding of biotinylated IL-17A detected, unlabeled IL-17E titrated as competitor [II) C]
Source text: as §2

human IL-17D [18] = biological target: T6, human IL-17D; experiment: competition ELISA: scFv PRO592 coated, binding of biotinylated IL-17A detected, unlabeled IL-17D titrated as competitor [II) C]
Source text: as §2

human IL-17C [19] = biological target: T5, human IL-17C; experiment: competition ELISA: scFv PRO592 coated, binding of biotinylated IL-17A detected, unlabeled IL-17C titrated as competitor [II) D]
Source text: as §2

human IL-17B [20] = biological target: T4, human IL-17B; experiment: competition ELISA: scFv PRO592 coated, binding of biotinylated IL-17A detected, unlabeled IL-17B titrated as competitor [II) D]
Source text: as §2

human IL-17F [21] = biological target: T7, human IL-17F; experiment: competition ELISA: scFv PRO592 coated, binding of biotinylated IL-17A detected, unlabeled IL-17F titrated as competitor [II) C]
Source text: as §2

Binder | Kd (human IL-17A [1]) [nM] | koff (human IL-17A [1]) [s⁻¹] | kon (human IL-17A [1]) [M⁻¹ s⁻¹] | Kd (cynomolgus monkey IL-17A [2]) [nM] | koff (cynomolgus monkey IL-17A [2]) [s⁻¹] | kon (cynomolgus monkey IL-17A [2]) [M⁻¹ s⁻¹] | Kd (human IL-17A [5]) [nM] | koff (human IL-17A [5]) [s⁻¹] | kon (human IL-17A [5]) [M⁻¹ s⁻¹] | KD, cyno/KD, human (cynomolgus monkey IL-17A [6]) | IC50 in HT-29 assay, GRO-α secretion (human IL-17A [7]) [ng/mL] | IC50 (human IL-17A [10]) [ng/mL] | other results
B1 | 0.139 | 0.000102 | 737000 | 0.905 | 0.000261 | 288000 | 0.247 | 0.000112 | 455000 | 3.66 | 0.2 | 2 | binding result (human IL-17E [3]): no binding (tested: about 20000 ng/mL); binding result (human IL-17B [4]): no binding (tested: about 100000 ng/mL); binding result (human IL-17C [8]): no binding (tested: about 100000 ng/mL); binding result (human IL-17D [9]): no binding (tested: about 100000 ng/mL on the axis); binding result (human IL-17F [11]): no binding (tested: about 20000 ng/mL)
B2 | 0.0403 | 4.55e-05 | 1.13e+06 | 0.0331 | 3.88e-05 | 1.17e+06 | 0.119 | 0.000144 | 1.21e+06 | 0.28 | 0.1 | 1.8 | binding result (human IL-17C [12]): no binding (tested: 100000 ng/ml); binding result (human IL-17F [13]): no binding (tested: 20000 ng/ml); binding result (human IL-17D [14]): no binding (tested: about 500000 ng/mL); binding result (human IL-17B [15]): no binding (tested: about 100000 ng/mL); binding result (human IL-17E [16]): no binding (tested: about 20000 ng/mL)
B3 | 0.0376 | 4.07e-05 | 1.08e+06 | 0.16 | 5.38e-05 | 336000 | 0.367 | 0.000142 | 387000 | 0.44 | 0.13 | 0.9 | binding result (human IL-17E [17]): no binding (tested: about 20000 ng/mL); binding result (human IL-17D [18]): no binding (tested: about 500000 ng/mL); binding result (human IL-17C [19]): no binding (tested: about 100000 ng/mL); binding result (human IL-17B [20]): no binding (tested: about 100000 ng/mL); binding result (human IL-17F [21]): no binding (tested: about 20000 ng/mL)

From patent US20220127350A1 (NUMAB THERAPEUTICS, published 2022)
